According to paper PMC4352398:

Experiments:
[1] = target: constitutively active Flag-Rab4 variant (Drosophila); assay: co-IP
[2] = target: dominant negative Flag-Rab4 variant (Drosophila); assay: co-IP

B1: Myc-RhoGAP68F (natural protein)
chain: MDAHSRFAPRLPGPAINPIVDNSDEPQPSLSDLHDFEPKLEFDDTELLAPSPLEKDVMVGDFVLAEDPELEPEEDVNPLEDDFEDQLREQSENFQTPRNKCDFLGTDKQGRHIFGIYASRFPEKSQLEGFVREIIKEIEPFVENDYILVYFHQGLKEDNKPSAQFLWNSYKELDRNFRKNLKTLYVVHPTWFIRVIWNFFSPFISDKFRKKLVYISSLDELRQALGLNKLKLPDNICDLDDKLNPSRKPSTPPPSSNINASRQQQHKMATTHQFGVPLKFIVMNSPCLNSIPPIVRKCVDSLSITGVIDTEGIFRRSGNHSEIMALKERVNRGEDVDLKSVNVHVIAGLLKSFLRDLAEPLLTFELYEDVTGFLDWPKEERSRNVTQLIREKLPEENYELFKYIVEFLVRVMDCEDLNKMTSSNLAIVFGPNFLWSRSTSTSLEEIAPINAFVDFVLQNHKDIYLIDVNQRTVSVD
**Q.** What does the source list for B1?
**A.** fold stronger association than with wild type Flag-Rab4 [1]: 3.26 fold; fold weaker association than with wild type Flag-Rab4 [2]: 2.88 fold
